B1: CDTa_(67-463) (domain or fragment)
chain: KEWERKEAERIEQKLERSEKEALESYKKDSVEISKYSQTRNYFYDYQIEANSREKEYKELRNAISKNKIDKPMYVYYFESPEKFAFNKVIRTENQNEISLEKFNEFKETIQNKLFKQDGFKDISLYEPGKGDEKPTPLLMHLKLPRNTGMLPYTNTNNVSTLIEQGYSIKIDKIVRIVIDGKHYIKAEASVVSSLDFKDDVSKGDSWGKANYNDWSNKLTPNELADVNDYMRGGYTAINNYLISNGPVNNPNPELDSKITNIENALKREPIPTNLTVYRRSGPQEFGLTLTSPEYDFNKLENIDAFKSKWEGQALSYPNFISTSIGSVNMSAFAKRKIVLRITIPKGSPGAYLSAIPGYAGEYEVLLNHGSKFKINKIDSYKDGTITKLIVDATLIP
B2: CDTa_(50-463) (domain or fragment)
chain: KAPIERPEDFLKDKEKAKEWERKEAERIEQKLERSEKEALESYKKDSVEISKYSQTRNYFYDYQIEANSREKEYKELRNAISKNKIDKPMYVYYFESPEKFAFNKVIRTENQNEISLEKFNEFKETIQNKLFKQDGFKDISLYEPGKGDEKPTPLLMHLKLPRNTGMLPYTNTNNVSTLIEQGYSIKIDKIVRIVIDGKHYIKAEASVVSSLDFKDDVSKGDSWGKANYNDWSNKLTPNELADVNDYMRGGYTAINNYLISNGPVNNPNPELDSKITNIENALKREPIPTNLTVYRRSGPQEFGLTLTSPEYDFNKLENIDAFKSKWEGQALSYPNFISTSIGSVNMSAFAKRKIVLRITIPKGSPGAYLSAIPGYAGEYEVLLNHGSKFKINKIDSYKDGTITKLIVDATLIP
B3: CDTa_(40-463) (domain or fragment)
chain: YSEKVCNTTYKAPIERPEDFLKDKEKAKEWERKEAERIEQKLERSEKEALESYKKDSVEISKYSQTRNYFYDYQIEANSREKEYKELRNAISKNKIDKPMYVYYFESPEKFAFNKVIRTENQNEISLEKFNEFKETIQNKLFKQDGFKDISLYEPGKGDEKPTPLLMHLKLPRNTGMLPYTNTNNVSTLIEQGYSIKIDKIVRIVIDGKHYIKAEASVVSSLDFKDDVSKGDSWGKANYNDWSNKLTPNELADVNDYMRGGYTAINNYLISNGPVNNPNPELDSKITNIENALKREPIPTNLTVYRRSGPQEFGLTLTSPEYDFNKLENIDAFKSKWEGQALSYPNFISTSIGSVNMSAFAKRKIVLRITIPKGSPGAYLSAIPGYAGEYEVLLNHGSKFKINKIDSYKDGTITKLIVDATLIP
B4: CDTa_(60-463) (domain or fragment)
chain: LKDKEKAKEWERKEAERIEQKLERSEKEALESYKKDSVEISKYSQTRNYFYDYQIEANSREKEYKELRNAISKNKIDKPMYVYYFESPEKFAFNKVIRTENQNEISLEKFNEFKETIQNKLFKQDGFKDISLYEPGKGDEKPTPLLMHLKLPRNTGMLPYTNTNNVSTLIEQGYSIKIDKIVRIVIDGKHYIKAEASVVSSLDFKDDVSKGDSWGKANYNDWSNKLTPNELADVNDYMRGGYTAINNYLISNGPVNNPNPELDSKITNIENALKREPIPTNLTVYRRSGPQEFGLTLTSPEYDFNKLENIDAFKSKWEGQALSYPNFISTSIGSVNMSAFAKRKIVLRITIPKGSPGAYLSAIPGYAGEYEVLLNHGSKFKINKIDSYKDGTITKLIVDATLIP

Key:
[1] = target: CDTb heptamer (Clostridioides difficile) (UniProt O32739); assay: cryo-EM structure
[2] = target: biotinylated CDTb oligomers (Clostridioides difficile) (UniProt O32739); assay: BLI; […]; 20 mM HEPES pH 8.0, 100 mM NaCl, […]; 5 min association, 10 min dissociation; […]
[3] = target: biotinylated CDTb oligomers (Clostridioides difficile) (UniProt O32739); assay: BLI; biotinylated CDTb oligomers saturated on streptavidin biosensors (Octet Red 96e); CDTa 200 to 0.032 nM in solution; 20 mM HEPES pH 8.0, 100 mM NaCl, blocked with 0.01% Igepal CA-630 and 0.1% BSA; 5 min association, 10 min dissociation; kON from the slope of kobs against concentration, KD from the signal at equilibrium (sigmoidal dose-response fit)

Molecule | stoichiometry N [1] | Kd [2] [nM] | kon [2] [M⁻¹ s⁻¹] | Kd [3] [nM] | kon [3] [M⁻¹ s⁻¹]
CDTb heptamer (from UniProt O32739 45-876) (complex) | 7 | – | – | – | –
B1 | – | 18.5 | 400000 | – | –
B2 | – | 5.7 | 1.4e+06 | – | –
B3 | – | – | – | 9 | 1.2e+06
B4 | – | – | – | 9.5 | 800000
